This is an account of results in patent publication US20240067748A1 (NONA BIOSCIENCES SUZHOU, published 2024).

The target in the assay is T1, mouse Trop2-his protein (Sino Biological, #50922-M08H) (mouse, UniProt Q8BGV3 25-270).
T1 construct: bought protein; also called mouse Trop2 protein; not shown: his tag
T1 sequence (looked up): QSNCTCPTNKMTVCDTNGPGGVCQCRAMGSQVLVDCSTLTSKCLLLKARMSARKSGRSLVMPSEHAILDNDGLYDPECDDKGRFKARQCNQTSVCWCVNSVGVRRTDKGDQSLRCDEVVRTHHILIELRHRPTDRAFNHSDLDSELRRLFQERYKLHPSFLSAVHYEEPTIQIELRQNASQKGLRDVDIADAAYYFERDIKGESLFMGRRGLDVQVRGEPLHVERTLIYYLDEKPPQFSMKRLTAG
The assay is described as follows: ELISA, plate coated with mouse Trop2-his protein. The protocol:
An ELISA plate was coated with 100 μL of 1 μg/mL mouse Trop2-his protein (Sino Biological, #50922-M08H) in PBS at 4° C. overnight. The plate was blocked with 200 μL of PBST (PBS+0.05% tween 20)+2% BSA at 37° C. for 1 h. The plate was washed 4 times with PBST. 100 μL of Trop2 antibody diluted in a gradient (5-fold dilution, starting concentration: 33.33 nM) was added to the ELISA plate and the plate was incubated at 37° C. for 1 h. The plate was washed 4 times with PBST. 100 μL of anti-human IgG (H+L)-HRP (Sigma, #A8667) diluted in 1:4000 was added and the plate was incubated at 37° C. for 1 h. The plate was washed 4 times with PBST. 100 μL of TMB substrate (Invitrogen, #88-7025-88) was added and the plate was incubated at room temperature for 5 min, and then 50 μL of stop buffer (BBI life sciences, #E661006-0200) was added to stop the reaction. The OD450 nm reading was recorded using a microplate reader (Perkin Elmer, EnSpire).
For orientation: In an ELISA, binding on a coated surface is turned into a signal by an enzyme label.

B1: comparative example 2 antibody Tab (hRS7) (antibody, human IgG1, kappa, V domains shown)
VH: QVQLQQSGSELKKPGASVKVSCKASGYTFTNYGMNWVKQAPGQGLKWMGWINTYTGEPTYTDDFKGRFAFSLDTSVSTAYLQISSLKADDTAVYFCARGGFGSSYWYFDVWGQGSLVTVSS
VL: DIQLTQSPSSLSASVGDRVSITCKASQDVSIAVAWYQQKPGKAPKLLIYSASYRYTGVPDRFSGSGSGTDFTLTISSLQPEDFAVYYCQQHYITPLTFGAGTKVEIKR
notes: prepared on the basis of sacituzumab govitecan (ChemPartner, #T07-001); naked antibody
On to B1, for which the binding result is “no binding (tested: 33.33 nM (starting concentration))”.
